Results reported in paper PMC11117311.

B1: Keratin 18 (K18): S30A (protein)
parent chain: MSFTTRSTFSTNYRSLGSVQAPSYGARPVSSAASVYAGAGGSGSRISVSRSTSFRGGMGSGGLATGIAGGLAGMGGIQNEKETMQSLNDRLASYLDRVRSLETENRRLESKIREHLEKKGPQVRDWSHYFKIIEDLRAQIFANTVDNARIVLQIDNARLAADDFRVKYETELAMRQSVENDIHGLRKVIDDTNITRLQLETEIEALKEELLFMKKNHEEEVKGLQAQIASSGLTVEVDAPKSQDLAKIMADIRAQYDELARKNREELDKYWSQQIEESTTVVTTQSAEVGAAETTLTELRRTVQSLEIDLDSMRNLKASLENSLREVEARYALQMEQLNGILLHLESELAQTRAEGQRQAQEYEALLNIKVKLEAEIATYRRLLEDGEDFNLGDALDSSNSMQTIQKTTTRRIVDGKVVSETNDTKVLRH
B2: Keratin 18 (K18): 5S (Ac45SGlcNAc) (protein)
parent chain: B1 parent chain

Columns and labels:
[1] = CHX chase 8 h, FLAG-K18 remaining by blot; details: glycan lost; control: FLAG-K18-WT
[2] = immunofluorescence, RBE cells; details: glycan lost; control: FLAG-K18WT
[3] = [U-13C6] glucose tracing, LC-MS/MS, HuCCT1; details: glycan lost; control: shK18 + WT
[4] = HA-ubiquitin, MG-132, anti-FLAG IP, anti-HA blot; details: glycan lost; control: FLAG-K18-WT
[5] = CHX chase up to 8 h, K18 remaining by blot; details: glycan lost; control: DMSO

| Protein | degradation_or_half_life [1] | other: filament organisation [2] | other: TCA cycle metabolite levels [3] | other: ubiquitination [4] | degradation_or_half_life [5] |
| --- | --- | --- | --- | --- | --- |
| B1 | decreases | changes | changes | increases |  |
| B2 |  |  |  |  | decreases |
